The values below are quoted from earlier work in article PMC11401910, “Dual client binding sites in the ATP-independent chaperone SurA” (Nature Communications, 2024).

In this series the target is OmpX (Escherichia coli) (UniProt P0A917). The conditions noted are these: cited from earlier work.
OmpX (Escherichia coli), sequence (P0A917 24-171): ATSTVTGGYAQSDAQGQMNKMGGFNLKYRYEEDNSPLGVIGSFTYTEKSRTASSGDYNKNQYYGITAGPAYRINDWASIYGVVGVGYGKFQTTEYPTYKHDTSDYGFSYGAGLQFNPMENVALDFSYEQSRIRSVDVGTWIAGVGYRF

SurA, sequence (P0ABZ6 21-428): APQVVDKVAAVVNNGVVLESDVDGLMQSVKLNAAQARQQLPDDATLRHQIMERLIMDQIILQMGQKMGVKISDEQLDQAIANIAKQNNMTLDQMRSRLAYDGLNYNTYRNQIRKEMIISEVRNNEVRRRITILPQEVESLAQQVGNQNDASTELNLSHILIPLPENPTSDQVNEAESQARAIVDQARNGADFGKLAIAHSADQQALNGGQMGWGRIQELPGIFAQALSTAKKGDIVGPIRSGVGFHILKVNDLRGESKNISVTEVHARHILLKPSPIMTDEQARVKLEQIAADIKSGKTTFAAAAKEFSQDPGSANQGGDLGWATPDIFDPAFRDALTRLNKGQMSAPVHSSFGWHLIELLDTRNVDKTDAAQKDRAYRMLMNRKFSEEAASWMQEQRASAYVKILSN

One may read the Kd as the equilibrium constant for the complex coming apart. In the case of SurA (from UniProt P0ABZ6), the dissociation constant Kd was 1000 nM.
